Test results: patent US20160280796A1 (Memorial Sloan Kettering, published 2016)

Tests used:
[1] = molecular target: T1, MHC1/WT1 peptide complex (soluble, biotinylated MHC-WT1 loaded on streptavidin biosensor) (human); test: ForteBio Octet QK, biotinylated MHC-WT1 on streptavidin biosensor, antibody at 10 µg/ml, 1:1 model
T1 construct: also called WT1/HLA-A2 complex

[2] = molecular target: T1, MHC1/WT1 peptide complex (soluble, …); test: ForteBio Octet QK, biotinylated MHC-WT1 on streptavidin biosensor, antibody at 20 µg/ml, 1:1 model

Row | Binder | Kd [1] [nM] | koff [1] [s⁻¹] | kon [1] [M⁻¹ s⁻¹] | Kd [2] [nM] | koff [2] [s⁻¹] | kon [2] [M⁻¹ s⁻¹]
1 | ESK1 (full-length antibody, parent of the ESK1-OKT3 bi-specific) (antibody, V domains shown, also called ESK1 mAb) VH: QMQLVQSGAEVKEPGESLRISCKGSGYSFTNFWISWVRQMPGKGLEWMGRVDPGYSYSTYSPSFQGHVTISADKSTSTAYLQWNSLKASDTAMYYCARVQYSGYYDWFDPWGQGTLVTVSS VL: not shown | 9.12 | 0.00499 | 547000 |  |  | 
2 | ESK1-OKT3 (bi-specific), full length bi-specific antibody made from ESK1 and anti-CD3 OKT3 by 2-MEA reduction and re-oxidation (bispecific antibody, also called ESK1/OKT3 bi-specific monoclonal antibody) heavy 1: not shown light 1: not shown heavy 2: not shown light 2: DIQMTQSPSSLSASVGDRVTITCSASSSVSYMNWYQQTPGKAPKRWIYDTSKLASGVPSRFSGSGSGTDYTFTISSLQPEDIATYYCQQWSSNPFTFGQGTKLQITRTVAAPSVFIFPPSDEQLKSGTASVVCLLNNFYPREAKVQWKVDNALQSGNSQESVTEQDSKDSTYSLSSTLTLSKADYEKHKVYACEVTHQGLSSPVTKSFNRGEC |  |  |  | 92.2 | 0.0033 | 35800
